Where no end group is shown, it is not given here.
Tests used:
[1] = biological target: T1, Membrane type 1 matrix metalloproteinase (MT1-MMP) (Homo sapiens, UniProt P50281 112-582); assay: cell-based or functional assay
[2] = biological target: T1, Membrane type 1 matrix …; assay: flow cytometry on cells expressing MT1-MMP

| Binder | IC50, 3D invasion assay (human MDA-MB-231 breast cancer cell invasion) [1] [µM] | binding result [2] |
| --- | --- | --- |
| VMDGYPMP [IS4-8 peptide (VMDGYPMP)] | 1.5 |  |
| GYPKSALR [IVS4-8 peptide (GYPKSALR)] | 10 |  |
| GYPMP [IS4-5 peptide (GYPMP)] | 1.5 |  |
| GYPMP (also: biotinylated (site not given here), also called biotinylated IS4-5 peptides) [biotinylated IS4-5 peptide] |  | binds |
